Holding throughout (type): biochemical
Details in all cases: pH 8.0, RT, 405 nm

Series [1] in a line: Activity determination and kinetic constants with chromogenic substrate Chromozym TH. The method, then: (§1) The activity of the renatured activated rFXTa proteases was determined with the chromogenic substrates Chromozym® X (N-methoxycarbonyl-D-Nle-Gly-Arg-pNA, Boehringer Mannheim GmbH, Mannheim, Cat. No. 789763), Chromozym® U (Bz-β-Ala-Gly-Arg-pNA, Boehringer Mannheim GmbH, Mannheim, Cat. No.836583), Chromozym® PK (Bz-Pro-Phe-Arg-pNA, Boehringer Mannheim GmbH, Mannheim, Cat. No. 378445) and Chromozym® TH (Tosyl-Gly-Pro-Arg-pNA, Boehringer Mannheim GmbH, Mannheim, Cat. No. 838268) in comparison with recombinant rFXa (rFX-EGF2-AP-CD; preparation and description see PCT/EP97/03027) and native human trypsin (Sigma-Aldrich Chemie GmbH, Deisenhofen, Germany, Cat. No. T6424). Abbreviations: Bz, benzoyl; pNA, p-nitroaniline.
(§2) 10-100 μl sample was filled up to 200 μl with 190-100 μl 50 mmol/l Tris-HCl, 150 mmol/l NaCl, 5 mmol/l CaCl2, 0.1% PEG 8000, pH 8.0 and 20 μl Chromozym® X, U, PK and TH (0.5-40 mmol/l) were added to and measured against a reagent blank value in an ELISA reader at a wavelength of 405 nm and RT. The activity and the kinetic constants were determined from the linear initial slope according to the Michaelis Menten equation.

A short description of series [2]: Activity determination and kinetic constants with chromogenic substrate Chromozym PK. The method, then:
as §1, §2

Series [3] in a line: Activity determination and kinetic constants with chromogenic substrate Chromozym U. The method, then: as §1, §2
The nature of series [4]: Activity determination and kinetic constants with chromogenic substrate Chromozym X. The method, then:
as §1, §2

Usually Km stands for the substrate concentration at which the rate is half of its maximum. What is called kcat is the number of substrate molecules converted per active site and unit of time at saturation. For “trypsin: native human trypsin (Sigma-Aldrich, Cat. No. T6424)”, the Michaelis-Menten constant (Km) in series [1] amounted to 13 µM; in series [2] it was 17 µM; in series [3], 208 µM; in series [4] it was 43 µM. Besides, the kcat was found to be 95 s⁻¹ in series [1], 38 s⁻¹ in series [2], 225 s⁻¹ in series [3] and 153 s⁻¹ in series [4].

Source of the values: patent US6660492B1, “Chimeric serine proteases” (Boehringer Mannheim GmbH, priority 1997, dated 2003).
